Data taken from patent US20110311550A1 (Scripps Research, published 2011).

Key:
[1] = target: T1, HCV E1E2 complex, isolate H77 (genotype 1a) (hepatitis C virus genotype 1a, isolate …, UniProt P27958 192-383; P27958 384-746); experiment: Fab ELISA on unmasked E1E2
[2] = target: T1, HCV E1E2 complex, isolate H77 (genotype …); experiment: apparent affinity: half-maximal binding, ELISA on lectin-captured E1E2
[3] = target: HCV E1E2 complex, isolate HCV-1 (genotype 1a), vaccinia-expressed (hepatitis C virus genotype 1a, isolate …, UniProt P26664 192-383; P26664 384-746); experiment: as above
[4] = target: T2, HCV E1E2 complex, isolate H77 (genotype 1a) (hepatitis C virus genotype 1a, isolate …, UniProt P27958 192-383; P27958 384-746); experiment: competition ELISA on lectin-captured H77 E1E2; competitor: Fab P5
T2 construct: also called E1E2 (H77); Folded E1E2

[5] = target: T2, HCV E1E2 complex, isolate H77 (genotype …); experiment: competition ELISA on lectin-captured H77 E1E2; competitor: Fab P6
[6] = target: T2, HCV E1E2 complex, isolate H77 (genotype …); experiment: competition ELISA on lectin-captured H77 E1E2; competitor: Fab Q1
[7] = target: T2, HCV E1E2 complex, isolate H77 (genotype …); experiment: competition ELISA on lectin-captured H77 E1E2; competitor: Fab Q2
[8] = target: T2, HCV E1E2 complex, isolate H77 (genotype …); experiment: competition ELISA on lectin-captured H77 E1E2; competitor: Fab R1
[9] = target: T2, HCV E1E2 complex, isolate H77 (genotype …); experiment: competition ELISA on lectin-captured H77 E1E2; competitor: Fab S1
[10] = target: T2, HCV E1E2 complex, isolate H77 (genotype …); experiment: competition ELISA on lectin-captured H77 E1E2; competitor: Fab T1
[11] = target: T2, HCV E1E2 complex, isolate H77 (genotype …); experiment: competition ELISA on lectin-captured H77 E1E2; competitor: Fab U1
[12] = target: T2, HCV E1E2 complex, isolate H77 (genotype …); experiment: competition ELISA on lectin-captured H77 E1E2; competitor: Fab V1
[13] = target: E1E2 (Env) of HCV isolate H (genotype 1a) on HCVpp (hepatitis C virus, isolate H); experiment: cell-based or functional assay
[14] = target: E1E2 (Env) of HCV isolate OH8 (genotype 1b) on HCVpp (hepatitis C virus, isolate OH8); experiment: cell-based or functional assay
[15] = target: E1E2 (Env) of HCV isolate UKN1B12.16 (genotype 1b) on HCVpp (hepatitis C virus, isolate UKN1B12.16); experiment: cell-based or functional assay
[16] = target: E1E2 (Env) of HCV isolate J6 (genotype 2a) on HCVpp (hepatitis C virus, isolate J6, UniProt P26660 192-383; P26660 384-750); experiment: cell-based or functional assay
[17] = target: E1E2 (Env) of HCV isolate UKN2A1.2 (genotype 2a) on HCVpp (hepatitis C virus, isolate UKN2A1.2); experiment: cell-based or functional assay
[18] = target: E1E2 (Env) of HCV isolate UKN2B1.1 (genotype 2b) on HCVpp (hepatitis C virus, isolate UKN2B1.1); experiment: cell-based or functional assay
[19] = target: E1E2 (Env) of HCV isolate UKN4.21.16 (genotype 4) on HCVpp (hepatitis C virus, isolate UKN4.21.16); experiment: cell-based or functional assay
[20] = target: E1E2 (Env) of HCV isolate UKN5.15.7 (genotype 5) on HCVpp (hepatitis C virus, isolate UKN5.15.7); experiment: cell-based or functional assay
[21] = target: VSV (control pseudotype virus envelope); experiment: cell-based or functional assay

B1: Fab P1 (Fab, V domains shown)
VH: EVQLLESGGGVVQPGGSLRLSCAASGFTFTSFTMHWVRQAPGKGLEWVALISHDGSNKDYADSVRGRFTVSRDNSKKMVYLQMSSLRPDDAAVYYCARGGPAYYTYSDTLTGYHNVVGDYWGQGTLVTVSS
VL: ELTQSPGTLSLSPGERATLSCRASQVRGFLAWFQQKPGQAPRLLIYGASNRAPGIPDRFSGSGSGTDFTLTISRLEPEDFAVYYCQQYGDSPPITFGQGTRLEIKR
notes: Soluble Fab
**Q.** Does B1 bind [1]?
**A.** binds

B2: Fab P1a (Fab, V domains shown)
VH: EVQLLESGGGVVQPGGSLRLSCAASGFTFTSFTMHWVRQAPGKGLEWVALISHDGSNKDYADSVRGRFTVSRDNSKKMVYLQMSSLRPDDAAVYYCARGGPAYYTYSDTLTGYHNVVGDYWGQGTLVTVSS
VL: ELTQSPGTLSLSPGERATLSCRTSQSVSSTYLAWYQQKPGQPPRLLIYGASNRAPGIPDRFSGSGSGTDFTLTISRLEPEDFAVYYCQQYGDSPPITFGQGTRLDIKR
**Q.** Does B2 bind [1]?
**A.** binds

B3: Fab T1 (Fab, V domains shown)
VH: EVQLLESGGGLVQPGGSLRLSCAASGFTFSRFWMHWVRQAPGKGLVWVARINSDGSSTTYADSVKGRFTISRDNAKNTLYLQMNSLRDEDTAVYFCARGGDSSSPYYYPMDVWGQGTTVAVSS
VL: not shown
**Q.** Does B3 bind [1]?
**A.** binds

B4: Fab O1 (Fab, V domains shown)
VH: VQLLEQSGAEVKKAGESVRLSCKASGYRFGDYWIAWVRQLPGRAPEWMGIIYPDDSDTKYSPSFQGQVTISADKSIRTTFLDWGSLKASDTAIYYCARGCLGAKCYYPHYYYGLDVWGQGTTVIVSS
VL: ELTQSPSSLSASVGDRVTITCRATQGIDNYLNWYQQKPGKPPRLLIYGASSLQSGVPSRFSGGGSGTHFTLTITNLQPEDFATYYCQQSYSTPPETFGQGTKVEIKR
notes: Soluble Fab
**Q.** Does B4 bind [1]?
**A.** binds

B5: Fab S1 (Fab, V domains shown)
VH: VQLLEQSGAEVKKPGTSVKVSCTASGYIFTSFGISWVRQAPGQGLEWMGRIDTYNGKTNYAQKLQGRVTMTTDTYTSTAYMELRSLTSDDTAVYYCARDDCRSSTCYLAQHNWQAYYHDSWGQGTLVTVSS
VL: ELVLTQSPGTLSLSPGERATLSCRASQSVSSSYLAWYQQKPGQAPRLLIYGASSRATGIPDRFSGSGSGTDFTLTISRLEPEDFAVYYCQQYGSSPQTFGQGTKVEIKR
**Q.** Does B5 bind [1]?
**A.** binds

B6: MAb AR2A (IgG1 from Fab G) (antibody, V domains shown)
VH: LEQSGAEMKKPGASLKVSCKTSGYTFDDYGVTWVRQAPGQGLEWMGWISAYSGNTFYARKFQGRVTMTTDPSTRTAYMELRSLRSDDTAVYFCARDRGLAINGVVFPYFGLDVWGQGTTVTVSS
VL: ELTQSPVSLPVTPGEPASISCRSSQSLLHSNGNHYLDWYLQKPGQSPQLLMYLGSNRASGVPDRFSGSGSGTDFTLKISRVEAEDVGVYYCMQGLQTPWTFGQGTKVEIKR
notes: also called G IgG
**Q.** For B6, which EC50 [2] is on record?
**A.** 1.6 nM

**Q.** What about the EC50 [3] of the same binder?
**A.** 3.1 nM

B7: MAb AR1A (antibody, V domains shown)
VH: LEQSGAEVKKPGSSVKVSCRASGSPYSSYTITWVRQAPGQGLEWMGGIILMTGKANYAQKFQGRVTITADRATATAYMEMSSLTSDDTAIYYCARDPYVYAGDDVRSLSRWGQGTPVIVSS
VL: not shown
notes: also called IgG1 of Fab B2
**Q.** With B7 as the binder, how does the residual binding [4] read?
**A.** 87%

**Q.** What about the residual binding [5] of the same binder?
**A.** 82%

**Q.** And the residual binding [6]?
**A.** 79%

**Q.** What about the residual binding [7] of the same binder?
**A.** 78%

**Q.** And the residual binding [8]?
**A.** 100%

**Q.** What about the residual binding [9] of the same binder?
**A.** 69%

**Q.** And the residual binding [10]?
**A.** 80%

**Q.** What about the residual binding [11] of the same binder?
**A.** 55%

**Q.** And the residual binding [12]?
**A.** 58%

B8: Fab P3 (Fab, V domains shown)
VH: EVQLLESGGGVVQPGKSLRLSCAVSGFTLNTFAMHWVRQVPGKGLEWVALTSHDGSRQDYADSVRGRFTISRDNSKSMVFLLMNSLRAEDTAVYYCVRGGPAYYTYNDVLTGYAYVVGDFWGQGTLVTVSS
VL: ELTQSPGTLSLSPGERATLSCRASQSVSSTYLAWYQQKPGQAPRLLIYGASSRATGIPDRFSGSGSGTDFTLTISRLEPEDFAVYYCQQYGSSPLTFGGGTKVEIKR
**Q.** Does B8 bind [1]?
**A.** binds

B9: Fab U1 (Fab, V domains shown)
VH: VQLLEQSGPEVKRPGTSVKMSCKISGGASITQAMSWVRQAPGQGLEWMGGITPIFGTVNYAQKILGRVTITADEDTVSLELSSLKSEDTAVYYCAREVNLKTWNLAHPNVFDVWGQGTMLTVSS
VL: ELTQSPSSLSASVGDRVTITCRASQSISSFLNWYQQKPGKAPKLLIYAASSLQSGVPPRFSGSGSGTDFTLTISSLQPEDFATYYCQQSYSTPRTFGQGTKLEIKR
**Q.** Does B9 bind [1]?
**A.** binds

B10: MAb AR3B (antibody, V domains shown)
VH: LEQSGPEVKKPGSSVKVSCKDSGDTFNEPVTWVRQAPGQGLEWIGGIIPAFGVTKYAQKFQGRVIISADASTATAYLELSSLRSEDTAVYYCAKVGLRGIVMVGGLAMNWLDPWGQGTQVTVSS
VL: not shown
**Q.** Which “Neutralizing activity (IC50) on HCVpp” value [13] does the source give for B10 here?
**A.** 1 µg/mL

**Q.** What about the “Neutralizing activity (IC50) on HCVpp” value [14] of the same binder?
**A.** 5 µg/mL

**Q.** And the “Neutralizing activity (IC50) on HCVpp” value [15]?
**A.** 1 µg/mL

**Q.** And the “Neutralizing activity (IC50) on HCVpp” value [16]?
**A.** 10 µg/mL

**Q.** And the “Neutralizing activity (IC50) on HCVpp” value [17]?
**A.** 5 µg/mL

**Q.** What about the “Neutralizing activity (IC50) on HCVpp” value [18] of the same binder?
**A.** 10 µg/mL

**Q.** And the “Neutralizing activity (IC50) on HCVpp” value [19]?
**A.** 1 µg/mL

**Q.** What about the “Neutralizing activity (IC50) on HCVpp” value [20] of the same binder?
**A.** 1 µg/mL

**Q.** What about the “Neutralizing activity (IC50) on control pseudotype virus” value [21] of the same binder?
**A.** > 50 µg/mL

B11: MAb AR3C (antibody, V domains shown)
VH: LEQSGAEVKKPGSSVKVSCETSGGTLDNYALNWVRQAPGQGLEWIGGVVPLFGTTRNAQKFQGRVTISDDKSTGTGHMELRSLRSEDTAVYYCVRSVTPRYCGGGFCYGEFDYWGQGTLVTVSS
VL: ELTQSPATLSVSPGERATLSCRASQSVSSNLAWYQQKPGQAPRLLIYGASTRATGIPARFSGSGSGTEFTLTVSRLEPEDSAVYFCQQYYRSPLTFGGGTKVEIKR
notes: also called IgG1 of Fab H3
**Q.** Which residual binding [4] does the source give for B11 here?
**A.** 117%

**Q.** And the residual binding [5]?
**A.** 103%

**Q.** What about the residual binding [6] of the same binder?
**A.** 97%

**Q.** What about the residual binding [7] of the same binder?
**A.** 75%

**Q.** What about the residual binding [8] of the same binder?
**A.** 163%

**Q.** What about the residual binding [9] of the same binder?
**A.** 149%

**Q.** What about the residual binding [10] of the same binder?
**A.** 105%

**Q.** What about the residual binding [12] of the same binder?
**A.** 82%

B12: MAb AR1B (IgG1 from Fab D1) (antibody, V domains shown)
VH: LESGGGLVQPGGSLRLSCEASGYYFSSFAMSWVRQTPGKGLEWVSSIAGGTLGRTSYRDSVKGRFTISRDNSKNTVFLHMNNLRPEDTAVYYCAKDPLLFAGGPNWFDHWGQGTLVTVSS
VL: not shown
**Q.** How did the EC50 [2] turn out when B12 was run?
**A.** 0.6 nM

**Q.** And the EC50 [3]?
**A.** 0.4 nM

B13: MAb AR1B (antibody, V domains shown)
VH: LESGGGLVQPGGSLRLSCEASGYYFSSFAMSWVRQTPGKGLEWVSSIAGGTLGRTSYRDSVKGRFTISRDNSKNTVFLHMNNLRPEDTAVYYCAKDPLLFAGGPNWFDHWGQGTLVTVSS
VL: not shown
notes: also called IgG1 of Fab D1
**Q.** How did the residual binding [4] turn out when B13 was run?
**A.** 95%

**Q.** What about the residual binding [5] of the same binder?
**A.** 95%

**Q.** What about the residual binding [6] of the same binder?
**A.** 97%

**Q.** And the residual binding [7]?
**A.** 96%

**Q.** And the residual binding [8]?
**A.** 101%

**Q.** And the residual binding [9]?
**A.** 101%

**Q.** What about the residual binding [10] of the same binder?
**A.** 102%

**Q.** And the residual binding [11]?
**A.** 103%

**Q.** And the residual binding [12]?
**A.** 102%
